These results are taken from patent publication US20230051715A1 (MABWELL THERAPEUTICS, published 2023).

Numbering of substitutions follows the chain as printed. In names and notes the source's numbering stands.

For experiment [1], the target named is T1, active human C1s (CompTech A104 C1s Enzyme) (human, UniProt P09871 16-688).
T1 construct: also called human active C1s; active C1s protein
T1 sequence (looked up): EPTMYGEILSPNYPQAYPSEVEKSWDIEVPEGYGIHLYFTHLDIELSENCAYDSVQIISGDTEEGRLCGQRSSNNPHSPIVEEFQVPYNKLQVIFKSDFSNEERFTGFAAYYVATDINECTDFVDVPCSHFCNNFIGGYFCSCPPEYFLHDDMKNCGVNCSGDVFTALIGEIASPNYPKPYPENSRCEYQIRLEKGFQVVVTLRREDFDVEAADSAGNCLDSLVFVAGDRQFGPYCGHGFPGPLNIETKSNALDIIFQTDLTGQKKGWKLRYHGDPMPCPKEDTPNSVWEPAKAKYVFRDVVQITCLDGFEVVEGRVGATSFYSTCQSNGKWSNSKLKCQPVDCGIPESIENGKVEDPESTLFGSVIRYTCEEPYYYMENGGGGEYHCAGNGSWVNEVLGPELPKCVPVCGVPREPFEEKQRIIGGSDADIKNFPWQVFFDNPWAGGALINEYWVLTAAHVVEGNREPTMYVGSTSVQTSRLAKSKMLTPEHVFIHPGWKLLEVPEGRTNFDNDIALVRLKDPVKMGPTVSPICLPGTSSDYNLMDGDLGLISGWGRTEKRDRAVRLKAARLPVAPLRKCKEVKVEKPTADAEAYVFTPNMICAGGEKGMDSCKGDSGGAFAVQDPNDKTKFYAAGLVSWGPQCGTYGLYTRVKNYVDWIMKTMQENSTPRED
Nature of the experiment: ELISA, C1s coated on plate. How it is done:
(§1) ELISA was carried out by first coating 96-well plates with 200 ng/well of human active C1s (CompTech A104, FIG. 3F) or human C1s proenzyme (CompTech A103, FIG. 3G) proteins overnight. The next morning, plates were blocked with SuperBlock T20 blocking buffer (Thermo Fisher Scientific Inc., Catalog No. 37536) for 1 h with gentle shaking. Then, various concentrations of anti-C1s antibodies diluted in SuperBlock T20 blocking buffer were added to the plates and incubated for 1 h with gentle shaking. Human IgG1 (BioXCell BP0297) was used as a negative control. The plates were washed before incubating with HRP conjugated secondary antibodies diluted in SuperBlock T20 blocking buffer (goat anti-human IgG antibody, HRP conjugate (Millipore AP309P)) for 1 h with gentle shaking. At last, the plates were washed and color developed with ELISA liquid substrate (Sigma-Aldrich), followed by stopping the reaction with addition of the same volume of […] 1M H₂SO₄. Bound antibody was measured by absorbance at OD₄₅₀ₙₘ.
(§2) The EC₅₀ for each antibody and target combination was determined as follows: for antibody 2-7, EC₅₀ for human active C1s is 12 ng/ml and EC₅₀ for human C1s proenzyme is 9 ng/ml; for antibody 2-8, EC₅₀ for human active C1s is 12 ng/ml and EC₅₀ for human C1s proenzyme is 10 ng/ml; for variant hz2-7(1L2), EC₅₀ for human active C1s is 13 ng/ml and EC₅₀ for human C1s proenzyme is 12 ng/ml; and for variant hz2-8(H1L2 G80A/T82A), EC₅₀ for human active C1s is 10 ng/ml and EC₅₀ for human C1s proenzyme is 8 ng/ml.
In general terms: ELISA stands for enzyme-linked immunosorbent assay.

For experiment [2], the target named is T2, human C1s proenzyme (CompTech A103) (human, UniProt P09871 16-688).
T2 construct: also called proenzyme human C1s (native C1s)
T2 sequence (looked up): T1 sequence (looked up)
Nature of the experiment: ELISA, C1s coated on plate. How it is done: as §1, §2

The target of experiment [3] is T3, human C1s mutant M1 (M277I) (human, UniProt P09871 16-688).
T3 construct: The entry is the mutant itself
T3 sequence: T1 sequence (looked up) with M277I
In words: ELISA, plate coated with human C1s mutant M1: M277I, OD450nm. The method, then:
ELISA was carried out by first coating 96-well plates with 200 ng/well of full-length or truncated C1s proteins overnight. The next morning, plates were blocked with SuperBlock T20 blocking buffer (Thermo Scientific 37536) for 1 h with gentle shaking. Then, various concentrations of anti-C1s antibodies diluted in SuperBlock T20 blocking buffer were added to the plates and incubated for 1 h with gentle shaking. Mouse IgG (Sigma-Aldrich 15381) and human IgG1 (BioXCell BP0297) were used as negative controls. The plates were washed before incubating with HRP conjugated secondary antibodies diluted in SuperBlock T20 blocking buffer (goat anti-mouse IgG (H+L) cross-adsorbed secondary antibody HRP (Invitrogen G-21040) or goat anti-human IgG antibody, HRP conjugate (Millipore AP309P)) for 1 h with gentle shaking. At last, the plates were washed and color developed with ELISA liquid HRP substrate (Sigma-Aldrich), followed by stopping the reaction with addition of 1M H₂SO₄ in the same volume as the ELISA liquid substrate. Bound antibody was measured by absorbance at OD₄₅₀ₙₘ.
Binding of anti-C1s antibodies to mutants M1-M20 of human C1s was measured by ELISA as described in Example 4, and results are shown in FIGS. 6B-6U. All anti-C1s humanized variants including hz2-7(H1L2), hz2-8(H1L2 G80A) and hz2-8(H1L2 G80A/T82A) maintained strong binding properties to the majority (16 out of 20) of C1s mutants including M1 (FIG. 6B), M2 (FIG. 6C), M3 (FIG. 6D). M4 (FIG. 6E), M7 (FIG. 6H), M8 (FIG. 6I), M10 (FIG. 6K), M11 (FIG. 6L), M12 (FIG. 6M), M13 (FIG. 6N), M15 (FIG. 6P), M16 (FIG. 6Q), M17 (FIG. 6R), M18 (FIG. 6S), M19 (FIG. 6T) and M20 (FIG. 6U).

B1: Anti-C1s antibody 2-8 (antibody, V domains shown)
VH: EVQLQQSGAELVRPGALVKLSCKASGFNIKEYYMHWVKQRPEQGLEWIGWIDPENGDTIYDPKFQGKASITADTSSNTAYLQLSSLTSEDTAVYYCARSRLFFAYWGQGTLVTVSA
VL: DIVMTQSHKFMSTSVGDRVSFTCKASQDVRTAVDWYQQKPGQSPKLLIYSASYRYTGVPDRFTGTGSGTDFTFTISSVQAEDLAVYFCQQQYTTPYTFGGGTKLEIKT
notes: the HC/LC entries may hold it too; also called clone 2-8
On to B1, for which the EC50 (commonly the concentration at which the effect is half-maximal) in experiment [1] was determined as 0.012 µg/mL; in experiment [2], 10 ng/mL.

B2: Anti-C1s antibody hz2-7(H1L2) (antibody, V domains shown)
VH: EVQLLESGGGLVQPGGSLRLSCAASGFTFSNYFMNWVRQAPGKGLEWVSEIRLKFTNYATHYADSVKGRFTISRDDSKSTLYLQMNSLRAEDTAVYYCTRDYGSRNGYFDYWGQGTLVTVSS
VL: DIVMTQTPLSLPVTPGEPASISCRSSKSLLHSNGNTFLYWFLQKPGQSPQLLIYRMSNLASGVPDRFSGSGSGTDFTLKISRVEAEDVGVYYCMQHLEYPYTFGGGTKLEIKR
notes: Humanized, human IgG1 / kappa; also called hz2-7(1L2)
For the molecule B2, the EC50 in experiment [3] worked out at 9 ng/mL; in experiment [1], 0.013 µg/mL; in experiment [2], 12 ng/mL.

B3: Anti-C1s antibody hz2-8 (H1L2 G80A) (antibody, V domains shown)
VH: QVQLVQSGAEVKKPGASVKVSCKASGFNIKEYYMHWVRQAPEQGLEWMGWIDPENADTIYAQKFQGRVTITADTSTNTAYMELSSLRSEDTAVYYCARSRLFFAYWGQGTLVTVSS
VL: DIQMTQSPKSLSASVGDRVTITCRASQDVRTALDWYQQKPGQSPKLLIYSASYRYSGVPSRFSGSGSGTDFTLTISSLQPEDFATYYCQQQYTTPYTFGQGTKLEIKR
notes: Humanized variant with G80A in HC CDR2 (already in the entry), human IgG1 / kappa
Take B3: in experiment [3], the EC50 was 7 ng/mL.

B4: Anti-C1s antibody hz2-8 (H1L2 G80A/T82A) (antibody, V domains shown)
VH: B3 VH with T58A
VL: B3 VL
notes: Humanized variant with G80A and T82A in HC CDR2 (already in the entry), human IgG1 / kappa
On to B4, for which the EC50 worked out at 5 ng/mL in experiment [3], 0.01 µg/mL in experiment [1] and 8 ng/mL in experiment [2].

B5: Anti-C1s antibody 2-7 (antibody, human IgG1, kappa, V domains shown)
VH: EVKLEESGGGLVPPGGSMKLSCVASGFTFSNYFMNWVRQSPEKGLEWVAEIRLKFTNYATHYAESVEGRFTISRDDSKSSVYLQMNNLRAEDTGIYYCTRDYGSRNGYFDYWGQGTTLTVSS
VL: DIVMTQAAPSVPVTPGESVSISCRSSKSLLHSNGNTFLYWFLQRPGQSPQLLIYRMSNLASGVPDRFSGSGSGTAFTLRVSRVEAEDVGIYYCMQHLEYPYTFGGGTKLEIKT
notes: the HC/LC entries may hold it too; also called clone 2-7
As for B5, the EC50 is 0.012 µg/mL in experiment [1] and 9 ng/mL in experiment [2].
